Assay [1] addresses T1, mouse NRP2 I383V on transfected Expi293 cells (Mouse, UniProt O35375 21-931).
T1 construct: whole, on cells; also called 1383V
T1 sequence (looked up): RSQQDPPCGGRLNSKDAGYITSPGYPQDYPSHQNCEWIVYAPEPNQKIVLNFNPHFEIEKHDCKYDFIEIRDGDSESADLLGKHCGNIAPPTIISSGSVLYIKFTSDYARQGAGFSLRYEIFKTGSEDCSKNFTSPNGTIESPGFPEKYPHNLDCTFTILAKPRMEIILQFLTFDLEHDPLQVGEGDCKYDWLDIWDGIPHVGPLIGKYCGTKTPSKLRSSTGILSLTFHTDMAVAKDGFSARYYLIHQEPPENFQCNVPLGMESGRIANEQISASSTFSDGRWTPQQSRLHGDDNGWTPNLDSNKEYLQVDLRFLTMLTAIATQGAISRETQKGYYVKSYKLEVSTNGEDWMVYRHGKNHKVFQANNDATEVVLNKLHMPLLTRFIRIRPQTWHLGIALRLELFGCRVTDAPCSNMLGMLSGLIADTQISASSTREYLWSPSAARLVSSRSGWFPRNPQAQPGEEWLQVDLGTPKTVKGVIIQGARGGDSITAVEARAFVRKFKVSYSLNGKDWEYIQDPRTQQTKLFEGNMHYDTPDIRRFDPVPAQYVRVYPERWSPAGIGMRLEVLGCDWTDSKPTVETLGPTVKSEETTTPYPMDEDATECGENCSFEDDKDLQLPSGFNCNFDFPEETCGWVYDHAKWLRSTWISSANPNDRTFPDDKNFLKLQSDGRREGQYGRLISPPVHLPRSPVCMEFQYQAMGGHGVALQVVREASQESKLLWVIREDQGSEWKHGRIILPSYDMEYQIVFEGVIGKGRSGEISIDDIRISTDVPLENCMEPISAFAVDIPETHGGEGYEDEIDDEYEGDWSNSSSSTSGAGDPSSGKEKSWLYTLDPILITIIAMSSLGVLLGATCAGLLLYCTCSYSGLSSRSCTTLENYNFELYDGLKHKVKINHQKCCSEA
In words: flow cytometry, aNRP2-10v10 at 10 nM on transfected Expi293 cells gated on live, single, NRP2 expressing cells [panel 11B]. The procedure: FIGS. 11A-11B show the measurement of antibody binding to Expi293 cells over-expressing NRP2. […] Gating for NRP2 over-expressing cells is shown.
Human NRP2a (version 2; see Table N1) and mouse NRP2v2 cDNAs were obtained from Origene. […] Human and mouse NRP2, expression vectors, along with expression vectors encoding all 6 mutants were transfected into Expi293 cells at 1 million cells/mL, by standard techniques. Approximately 40 hours post transfection cells were co-stained with aNRP2-10v10, and a species agnostic anti-NRP2 a1 specific binding antibody.

Assay [2] concerns the target T2, cynomolgus monkey NRP2 on transfected Expi293 cells (cynomolgus monkey).
T2 construct: whole, on cells; Plasmid bought from Origene; transient transfection; also called Cyno NRP2
In words: flow cytometry on Cyno NRP2-transfected Expi293 cells. As for the experimental part: Binding of a-NRP2 to cynomolgus monkey NRP2-transfected Expi293 cells. Cynomolgus monkey (cyno) NRP2-transfected Expi293 cells were collected by centrifugation at 300 g for 5 minutes, and washed twice by DPBS (with calcium and magnesium, ThermoFisher Cat #14040133).
Washed cells were added to a 96-well V-bottom plate (ThermoFisher Cat #1424572) at 100,000 cells/well in 50 μL of DPBS added with Zombie Violet viability stain (Biolegend Cat #423114, diluted at 1:500). From this step on, cells were protected from light. Cells were kept at room temperature for 10 min and pelleted down at 300 g for 5 minutes at 4° C. Supernatants containing Zombie Violet were discarded, and without washing, 30 uL of antibodies diluted in the flow wash buffer (FWB, DPBS plus 2% FBS and 0.1% sodium azide to inhibit receptor internalization) were added to the cells. For a-NRP2 staining on Cyno NRP2-transfected Expi293 cells, in-house human anti-NRP2 antibodies were tested at final concentrations of 0.006-100 nM at 4-fold dilutions. For each test, NRP2 over-expression on the cell surface was validated by a-NRP2 staining (10 μg/mL R&D #AF567 a-NRP2) in separate wells. Binding was allowed to proceed on ice for 40-60 minutes. Cells were then pelleted at 300 g for 5 minutes at 4° C., supernatants removed, and cells washed twice by adding 150 μL of FWB and centrifuging the cells again in the same conditions. To detect a-NRP2 binding on the cell surface, Cy3-conjugated goat anti-human IgG Fc or AF647-conjugated donkey anti-goat IgG (Jackson ImmunoResearch Cat #109165098 & 705605147) was added to the cells at a final concentration of 3 μg/mL in 30 μL of FWB. After 30-40 minutes of incubation on ice, cells were pelleted at 300 g for 5 minutes at 4° C. and supernatants removed, and the cells were washed twice as described previously. […] Cells were then analyzed on FlowJo analysis software by excluding dead cells and gating singlets.
The EC₅₀ of three anti-NRP2 antibodies, each against a distinct domain of NRP2, were measured for binding to Cyno NRP2-transfected Expi293 cells (see Table E2 and FIG. 4).

The text below walks through data of patent publication US20210163606A1 (ATYR PHARMA, published 2021).

Broadly, the EC50 is the concentration needed to bring the measured effect to its halfway point.

B1: aNRP2-10v10 (antibody, V domains shown)
VH: EVQLVQSGAEVKKPGATVKISCKVSGFNIKDYYVHWVQQAPGKGLEWMGRIDVEDDETKYAPKFQGRVTITADTSTDTAYMELSSLRSEDTAVYYCATPIYGAREAWFAYWGQGTLVTVSS
VL: DIQMTQSPSSLSASVGDRVTITCTASSSVSSSYLHWYQQKPGKAPKLLIYRTSNLASGVPSRFSGSGSGTDFTLTISSLQPEDFATYYCHQYYRSPPTFGGGTKVEIK
B1: the binding result in assay [1] is listed as “no binding (tested: 10 nM)”. In assay [2], a half-maximal response (EC50) required 2.9 nM.
